The record followed here is patent EP4386000A1 (Nanjing Novoacine Bio-Technology Co., Ltd., dated 2024).

For assay [1], the target named is T1, CD25 on CD4+CD25+ Treg cells isolated from human PBMCs (human, UniProt P01589 22-272).
T1 sequence (looked up): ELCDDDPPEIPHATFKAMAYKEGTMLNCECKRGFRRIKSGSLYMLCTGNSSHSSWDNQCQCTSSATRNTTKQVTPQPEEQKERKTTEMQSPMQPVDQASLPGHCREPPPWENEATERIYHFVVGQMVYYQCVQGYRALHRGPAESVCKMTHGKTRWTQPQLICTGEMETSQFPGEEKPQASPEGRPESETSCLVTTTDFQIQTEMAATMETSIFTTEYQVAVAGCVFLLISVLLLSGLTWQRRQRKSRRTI
In words: cell-based or functional assay.

Assay [2] has as its target T2, human CD25 on CHO-K1/hCD25 cells (human, UniProt P01589 22-272).
T2 construct: whole, on cells; The construct of the cell line is not described
T2 sequence (looked up): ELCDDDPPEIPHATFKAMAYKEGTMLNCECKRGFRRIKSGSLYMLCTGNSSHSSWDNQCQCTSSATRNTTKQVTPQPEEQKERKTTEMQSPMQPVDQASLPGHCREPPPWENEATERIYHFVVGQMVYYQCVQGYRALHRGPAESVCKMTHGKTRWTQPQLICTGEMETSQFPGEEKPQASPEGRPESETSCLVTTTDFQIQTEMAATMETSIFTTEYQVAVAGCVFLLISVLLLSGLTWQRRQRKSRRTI
The assay is described as follows: flow cytometry on CHO-K1/hCD25 cells. A general note: In flow cytometry, cells or beads pass a laser one at a time.

The target of assay [3] is T3, human CD25 (NP_000408.1) (Met 1-Cys 213) C-terminally fused with 6-histidine tag (human, UniProt P01589 22-213).
T3 construct: range 1-213; Expressed in CHO-K1 cells; also called human CD25-his
T3 sequence: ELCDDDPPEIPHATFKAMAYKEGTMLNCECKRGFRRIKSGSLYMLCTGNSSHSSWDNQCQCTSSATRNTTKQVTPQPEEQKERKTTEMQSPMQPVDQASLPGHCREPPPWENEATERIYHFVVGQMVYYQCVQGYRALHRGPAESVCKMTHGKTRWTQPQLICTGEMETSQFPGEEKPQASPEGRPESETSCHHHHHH
In words: ELISA, human CD25-his coated.

In assay [4] the target is T3, human CD25 (NP_000408.1) (Met 1-Cys …). The assay is described as follows: SPR (BIAcore X100), human CD25-his captured by anti-histidine antibody, antibody as analyte, 1:1 model. In general terms: SPR reads the build-up and loss of mass on a sensor chip optically.
In assay [5] the target is T4, Mouse CD25-his (UniProtKB-P01590, Met1-Lys213) (mouse, UniProt P01590 22-213).
T4 construct: range 1-213; Range begins at Met1 (includes the signal peptide); not shown: his tag
T4 sequence (looked up): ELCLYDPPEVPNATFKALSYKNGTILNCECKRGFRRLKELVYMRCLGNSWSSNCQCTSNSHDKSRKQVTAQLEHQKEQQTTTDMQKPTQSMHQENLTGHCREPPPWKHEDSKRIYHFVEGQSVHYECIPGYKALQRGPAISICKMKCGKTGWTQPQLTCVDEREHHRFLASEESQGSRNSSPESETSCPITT
In words: ELISA, mouse CD25-his coated. (In general: In an ELISA, binding on a coated surface is turned into a signal by an enzyme label.)

For assay [6], the target named is T5, cyno CD25-his (NCBI-H6WS54, Met1-Arg213) (cyno).
T5 construct: range 1-213; Range begins at Met1 (includes the signal peptide)
In words: ELISA, cyno CD25-his coated.

The target of assay [7] is T1, CD25 on CD4+CD25+ Treg cells isolated …. In words: cell-based or functional assay. The source holds these as a separate data set.
Assay [8] addresses T3, human CD25 (NP_000408.1) (Met 1-Cys …). The assay is described as follows: SPR (BIAcore X100), human CD25-his captured by anti-histidine antibody, antibody as analyte, 1:1 model. The source holds these as a separate data set.

Where two headings read alike, the source gives them in different places.

B1: chimeric antibody 2046-36H2L1 (antibody, human IgG1, kappa, V domains shown)
VH: QIQLVQSGPELKKPGETVRISCKASGYTFTTAGMQWVQKMPGKGLKWIGWINTHSGVPKYAEDFKGRFAFSLETSASTAYLQISNLKNEDTATYFCASDYAFGYWGQGTLVTVSA
VL: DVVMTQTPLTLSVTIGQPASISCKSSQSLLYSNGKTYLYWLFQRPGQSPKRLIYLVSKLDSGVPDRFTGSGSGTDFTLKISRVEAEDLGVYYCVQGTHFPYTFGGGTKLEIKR
notes: Chimeric, human IgG1/kappa; also called 2046-36ix
B1: in assay [1], the “EC50, killing Tregs in vitro (ADCC reporter, jurkat/CD16a/NFAT-luc)” value (“EC50 … (ADCC reporter, jurkat/CD16a/NFAT-luc)” below) was determined as 52.4 µg/mL and the “Relative activity (%) compared with 686, killing Tregs in vitro” value was found to be 248%. In addition, in assay [2], the EC50 (as a rule, the concentration that produces a half-maximal response) was 0.00167 µg/mL and the “Relative activity (%) compared with 686” value turned out to be 73.3%. In addition, in assay [3], the midpoint of the response, the EC50, lay at 0.103 µg/mL and the “Relative activity (%) compared with 686” value was 101%. In assay [4], binding was put at a Kd of 2.45 nM; the koff (commonly the first-order rate constant of dissociation) amounted to 0.00933 s⁻¹; the on-rate (kon) (as a rule, the second-order rate constant of association) was found to be 3.8e+06 M⁻¹ s⁻¹. For the same molecule, in assay [5], the binding result is reported as “no binding (tested: starting at 100 ng/mL)”. The EC50 in assay [6] worked out at 0.0549 µg/mL.

B2: chimeric antibody 2047-10H1L2 (antibody, human IgG1, kappa, V domains shown)
VH: QVQLQQSGPELVRPGVSVKISCKGSGYTFTDYAMHWVKQSHAKSLEWIGVISTYNGNTNYNQKFKGKATMTVDKSSSTAYMELARLTSEDSAIYYCARSYGNYPFDYWGQGTTLTVSS
VL: DIKMTQSPSSMYASLGERVTITCKASQDINSYLSWFQQKPGKSPKTLIYRANRLVDGVPSRFSGSGSGQDYSLTISSLEYEDMGIYYCLQYDEFPYTFGGGTKLEIKR
notes: Chimeric, human IgG1/kappa; also called 2047-10ix
On to B2, for which, in assay [1], the “EC50 … (ADCC reporter, jurkat/CD16a/NFAT-luc)” value is 41.4 µg/mL and the “Relative activity (%) compared with 686, killing Tregs in vitro” value was 314%. For the same molecule, in assay [2], the EC50 worked out at 0.00246 µg/mL and the “Relative activity (%) compared with 686” value was found to be 120%. In addition, in assay [3], the midpoint of the response, the EC50, lay at 0.186 µg/mL and the “Relative activity (%) compared with 686” value stood at 56%. Also, in assay [4], the dissociation constant (Kd) (as a rule, the equilibrium constant for the complex coming apart) was 15.5 nM; the koff is 0.0122 s⁻¹; the kon turned out to be 788000 M⁻¹ s⁻¹. Moreover, the binding result in assay [5] was “no binding (tested: starting at 100 ng/mL)”. The molecule further registered a concentration for a half-maximal effect (EC50) in assay [6] of 2.6 µg/mL.

B3: humanized antibody 2046-18H1L1-m2 (antibody, human IgG1, kappa, V domains shown)
VH: EVQLQESGPGLVKPSQTLSLTCTVSGYSITSDYAWNWIRQPPGKGLEWIGYISYSGITIYNPSLKSRVTISRDTSKNQFSLKLSSVTAADTAVYYCARWLLQIYYAMDYWGQGTLVTVSS
VL: EIVLTQSPGTLSLSPGERATLSCSSSQSLVHSNGNTYLHWYQQKPGQAPRLLIYKVSNRFSGIPDRFSGSGSGTDFTLTISRLEPEDFAVYYCSQSTHVPLTFGQGTKLEIKR
For the molecule B3, in assay [7], the “EC50 … (ADCC reporter, jurkat/CD16a/NFAT-luc)” value was 82.6 µg/mL. In assay [8], binding was put at a Kd of 2.45 nM, the koff turned out to be 0.00137 s⁻¹ and the kon stood at 560000 M⁻¹ s⁻¹.
